The target of assay [1] is T1, Human LAG-3 on cells (human LAG-3 expressing EL4 cells; activated human CD3+ T cells) (human, UniProt P18627 23-525).
T1 sequence (looked up): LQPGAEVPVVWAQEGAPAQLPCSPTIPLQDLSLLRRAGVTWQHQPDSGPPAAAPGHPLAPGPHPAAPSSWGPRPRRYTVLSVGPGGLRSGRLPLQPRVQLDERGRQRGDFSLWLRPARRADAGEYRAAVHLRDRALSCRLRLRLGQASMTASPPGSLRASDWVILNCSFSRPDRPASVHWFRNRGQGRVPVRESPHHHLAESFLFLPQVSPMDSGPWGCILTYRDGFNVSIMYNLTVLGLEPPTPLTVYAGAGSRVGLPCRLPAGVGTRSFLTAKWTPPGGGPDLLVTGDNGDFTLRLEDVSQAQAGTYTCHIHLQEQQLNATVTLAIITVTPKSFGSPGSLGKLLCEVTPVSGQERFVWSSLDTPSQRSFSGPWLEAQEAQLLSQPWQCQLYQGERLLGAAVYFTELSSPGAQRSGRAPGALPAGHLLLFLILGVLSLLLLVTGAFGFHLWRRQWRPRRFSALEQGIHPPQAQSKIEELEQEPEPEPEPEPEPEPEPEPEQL
The experiment in a line: cell-based or functional assay.

In assay [2] the target is T2, Recombinant human LAG-3 ECD-His6 (human, UniProt P18627 23-433).
T2 construct: also called LAG-3-His; recombinant human LAG-3-His
T2 sequence: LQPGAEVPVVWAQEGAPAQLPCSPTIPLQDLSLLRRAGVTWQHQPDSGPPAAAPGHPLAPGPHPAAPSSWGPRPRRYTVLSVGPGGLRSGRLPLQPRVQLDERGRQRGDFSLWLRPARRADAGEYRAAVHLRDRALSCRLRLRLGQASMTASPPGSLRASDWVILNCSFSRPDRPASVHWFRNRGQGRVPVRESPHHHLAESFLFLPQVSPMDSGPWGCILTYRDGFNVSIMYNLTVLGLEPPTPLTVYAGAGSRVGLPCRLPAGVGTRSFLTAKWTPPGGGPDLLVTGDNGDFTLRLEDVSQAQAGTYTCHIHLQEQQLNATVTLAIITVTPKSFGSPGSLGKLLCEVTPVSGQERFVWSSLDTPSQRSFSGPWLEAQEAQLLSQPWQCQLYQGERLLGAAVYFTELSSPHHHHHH
The experiment in a line: SPR Biacore T100, Anova comparison of KD. As for the experimental part:
(§1) Wild type fucosylated and afucosylated antibodies were compared for their ability to bind to recombinant human LAG-3 ECD with a C-terminal His6 (SEQ ID NO:51) using the Biacore™ T100 (GE Healthcare™). Protein A was immobilised on a CM5 chip by primary amine coupling. This surface was then used to capture the humanised antibodies. Recombinant human LAG-3 ECD-His6 was then passed over the captured antibodies at 32, 8, 2, 0.5 and 0.125 nM and regeneration was carried out using 50 mM NaOH. The binding curves were double referenced with buffer injection (i.e. 0 nM) and the data was fitted to the T100 analysis software using the 1:1 model. The run was carried out at 25° C., using HBS-EP as the running buffer.
(§2) In order to investigate the statistical significance of this kinetic data, this experiment was repeated 3 times with the same batch of the four antibodies and the chimeric control. KD, ka and kd parameters were each log (base 10) transformed prior to separate statistical analyses. For each parameter, a mixed model analysis of variance CAnova′) was performed on transformed data, including terms for Run (random block effect) and Antibody.
(§3) From the Anova, geometric means were predicted for each antibody, along with statistically plausible ranges (95% confidence intervals) for each mean. Planned comparisons of antibodies were performed within the Anova. […]

Assay [3] has as its target T2, Recombinant human LAG-3 ECD-His6. The experiment in a line: SPR Biacore T100, Anova comparison of kd. As for the experimental part: as §1, §2, §3
The target in assay [4] is T3, recombinant soluble human FcγRIIIa V158 (human, UniProt P08637 17-208).
T3 construct: also called FcγRIIIa valine V158; CD16
The experiment in a line: SPR ProteOn XPR36, His-tagged receptor captured on anti-poly-histidine IgG, equilibrium model. As for the experimental part:
(§4) A goat anti-poly-histidine IgG was immobilised on a GLM biosensor chip by primary amine coupling. This surface was used as a capture surface for the poly-histidine tagged human Fc gamma receptors. […] The goat anti-poly-histidine IgG surface was regenerated with 100 mM phosphoric acid between interactions. The run was carried out on the ProteOn XPR36 Protein Array Interaction System at 25° C. and using HBS-EP as running buffer. Data was analysed for each receptor separately, setting a global R-max and using the Equilibrium Model inherent to the ProteOn's analysis software. Control molecules were run at the beginning and the end of the set of samples to be tested to ensure comparability of results. Data was compared from two experiments and hybrid control antibodies used as controls between experiments.

In assay [5] the target is T4, recombinant soluble human FcγRIIIa F158 (human, UniProt P08637 17-208).
T4 construct: also called FcγRIIIa phenylalanine F158; CD16
Described as above. As for the experimental part:
as §4

In assay [6] the target is T5, recombinant soluble human FcγRIIa H131 (human, UniProt P12318 36-218, limits assumed).
T5 sequence (looked up): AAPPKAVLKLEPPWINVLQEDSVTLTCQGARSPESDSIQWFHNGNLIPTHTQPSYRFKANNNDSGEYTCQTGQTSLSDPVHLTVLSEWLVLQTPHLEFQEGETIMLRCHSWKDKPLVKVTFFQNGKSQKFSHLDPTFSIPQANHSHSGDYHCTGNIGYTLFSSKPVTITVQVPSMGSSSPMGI
Nature of the assay: SPR ProteOn XPR36, His-tagged receptor captured on anti-poly-histidine IgG, antibody analyte 8-2048 nM, equilibrium model, 25 C. As for the experimental part:
as §4

Values joined by “and” are separate entries in the source; they are usually repeats but may differ in a detail not shown here. Equal entries are not always repeated.

T4 sequence (P08637 17-208 limits assumed): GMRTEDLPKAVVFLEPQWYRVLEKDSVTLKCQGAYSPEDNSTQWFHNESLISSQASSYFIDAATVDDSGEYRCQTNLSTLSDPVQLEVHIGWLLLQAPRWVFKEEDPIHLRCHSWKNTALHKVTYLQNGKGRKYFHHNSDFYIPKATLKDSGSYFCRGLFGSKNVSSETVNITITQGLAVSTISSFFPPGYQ
T3 sequence (P08637 17-208 F176V limits assumed): as the sequence (P08637 17-208 limits assumed) above, with F160V counted along it

B1: H5L7BW (antibody, human IgG1, kappa)
heavy: not shown
light: DIQMTQSPSSLSASVGDRVTITCKSSQSLLNPSNQKNYLAWYQQKPGKAPKLLVYFASTRDSGVPSRFSGSGSGTDFTLTISSLQPEDFATYYCLQHFGTPPTFGQGTKLEIKRTVAAPSVFIFPPSDEQLKSGTASVVCLLNNFYPREAKVQWKVDNALQSGNSQESVTEQDSKDSTYSLSSTLTLSKADYEKHKVYACEVTHQGLSSPVTKSFNRGEC
modifications: afucosylated: no fucose on the core carbohydrate structure attached to Asn297
notes: Same plasmids as H5L7, expressed in the BioWa POTELLIGENT (FUT8 knock-out CHO) cell line; also called afucosylated antibody H5L7BW; afucosylated H5L7
B1: in assay [1], the “EC50 of depletion of antigen specific CD4 T cells by ADCC (primary human T cells, autologous NK cells, 18 h)” value is 14 µg/mL and 3.4 ng/mL; the “EC50 of depletion of antigen specific LAG-3 positive CD8 T cells by ADCC” value is 122 µg/mL and 0.0175 µg/mL. In assay [2], the “KD ratio against H5L7” value was 1.05 ratio. Besides, the “kd ratio against H5L7” value in assay [3] is 1.12 ratio. Also, the “fold improvement in affinity against H5L7” value in assay [4] was ~10 fold. Besides, the “fold improvement in affinity against H5L7” value in assay [5] is ~10 fold. Further, the Kd in assay [6] worked out at 1430 nM.

B2: H5L7 (antibody, human IgG1, kappa)
heavy: not shown
light: B1 light
notes: Humanised IgG1/kappa of A9H12 (IMP731); also called fucosylated H5L7; non-ADCC enhanced variant H5L7
In the case of B2, the “KD ratio against IMP731” value in assay [2] came to 0.0774 ratio. In addition, the “kd ratio against IMP731” value in assay [3] came out at 0.155 ratio. Further, in assay [6], the Kd was 638 nM.

B3: IMP731 (antibody, human IgG1, kappa)
heavy: not shown
light: DIVMTQSPSSLAVSVGQKVTMSCKSSQSLLNGSNQKNYLAWYQQKPGQSPKLLVYFASTRDSGVPDRFIGSGSGTDFTLTISSVQAEDLADYFCLQHFGTPPTFGGGTKLEIKRTVAAPSVFIFPPSDEQLKSGTASVVCLLNNFYPREAKVQWKVDNALQSGNSQESVTEQDSKDSTYSLSSTLTLSKADYEKHKVYACEVTHQGLSSPVTKSFNRGEC
notes: Chimeric (murine variable domains, human IgG1/kappa constant regions); also called A9H12; chimeric antibody IMP731
B3: the dissociation constant Kd in assay [6] is 1280 nM.

(Values after US20160017037A1 (GlaxoSmithKline, published 2016).)
